# Experimental data taken from FireProtDB (doi:10.1074/jbc.271.51.32729).
# B1: Ribonuclease HI, P0A7Y4 (parent)
# chain: MLKQVEIFTDGSCLGNPGPGGYGAILRYRGREKTFSAGYTRTTNNRMELMAAIVALEALKEHCEVILSTDSQYVRQGITQWIHNWKKRGWKTADKKPVKNVDLWQRLDAALGQHQIKWEWVKGHAGHPENERCDELARAAAMNPTLEDTGYQVEV
# Variants of: B1
# Conditions: Escherichia coli (strain K12), Thermal, CD, reversible: yes, structure 2RN2, whole UniProt chain shown
# [1] = pH 9, 47 °C, glycine-NaOH 50 mM
Variant,"ddG of mutation (higher = less stable) (pH 3, 50 °C, glycine-HCl 10 mM) [kcal/mol]","Tm (pH 3, glycine-HCl 10 mM) [°C]","change of melting temperature, mutant - wild type (higher = more stable) (pH 3, glycine-HCl 10 mM) [°C]","unfolding enthalpy (van 't Hoff) (pH 3, glycine-HCl 10 mM) [kcal/mol]",ddG of mutation (higher = less stable) [1] [kcal/mol],"Tm (pH 9, glycine-NaOH 50 mM) [°C]","change of melting temperature, mutant - wild type (higher = more stable) (pH 9, glycine-NaOH 50 mM) [°C]"
E48D,-0.2,50.8,0.8,103,0.2,46.2,-0.8
E48A,0.1,49.8,-0.2,91.6,0.3,46,-1
E48Q,0.1,49.8,-0.2,99.1,–,48,1
D134N,0.1,49.7,-0.3,110,-1.8,53.4,6.4
D134A,-0.8,52.9,2.9,105,-2,–,–
D10N,0.7,47.4,-2.6,90.5,-2,53.8,6.8
D10S,-0.7,52.4,2.4,121,-2.7,56.2,9.2
D10H,-0.4,51.5,1.5,115,-2.4,–,–
D10A,-2.4,58.1,8.1,105,–,–,–
D10E,-1.1,53.8,3.8,97.7,-1,50.4,3.4
D70N,0.3,48.8,-1.2,110,–,52.5,5.5
D70A,0.1,49.7,-0.3,85.5,-1.1,50.8,3.8
D70E,-0.5,51.8,1.8,90.4,-0.1,–,–
